This series concerns the molecule itself. As to the kind of experiment: co-sedimentation; purified FlgE (4 µM) transported into inverted membrane vesicles with FlgD (0.6 or 4 µM), FliH2/FliI complex, FliJ and 5 mM ATP; after proteinase K and Triton X-100 centrifuged at 150,000 x g for 30 min; supernatant and precipitate immunoblotted; hook forms on the basal body inside the vesicle. In general terms: Immunoblotting shows a protein as a band on a membrane.

B1: FlgE (natural protein)
chain: MSFSQAVSGLNAAATNLDVIGNNIANSATYGFKSGTASFADMFAGSKVGLGVKVAGITQDFTDGTTTNTGRGLDVAISQNGFFRLVDSNGSVFYSRNGQFKLDENRNLVNMQGMQLTGYPATGTPPTIQQGANPAPITIPNTLMAAKSTTTASMQINLNSTDPVPSKTPFSVSDADSYNKKGTVTVYDSQGNAHDMNVYFVKTKDNEWAVYTHDSSDPAATAPTTASTTLKFNENGILESGGTVNITTGTINGATAATFSLSFLNSMQQNTGANNIVATNQNGYKPGDLVSYQINNDGTVVGNYSNEQEQVLGQIVLANFANNEGLASQGDNVWAATQASGVALLGTAGSGNFGKLTNGALEASNVDLSKELVNMIVAQRNYQSNAQTIKTQDQILNTLVNLR
notes: FlgE, flagellar hook protein, Salmonella; also called hook protein FlgE
Take B1: the binding result is on record as “binds”.

(Values after paper PMC6020293, “In Vitro Reconstitution of Functional Type III Protein Export and Insights into Flagellar Assembly” (mBio, 2018).)
